Source: article PMC7813410, “Intraperitoneal insulin administration in pigs: effect on circulating insulin and glucose levels” (BMJ Open Diabetes Research & Care, 2021)
Where two headings read alike, the source gives them in different places.

Experiments:
pigs = assay: Blood glucose after intraperitoneal insulin boluses in anesthetized pigs; assay type: in vivo, pig; settings: mean±SE
Protocol: In every stall, a heating lamp was provided.
(§1) The somatostatin analogs were injected 1 hour before the first insulin bolus of the day. 0.4 mg octreotide was injected intravenously and 0.3 mg pasireotide was injected subcutaneously. The octreotide injections were repeated hourly and the pasireotide injections were repeated every 3 hours during the trial.
To prevent hypoglycemia, a continuous venous glucose infusion was provided through the left internal jugular vein and was continued for the duration of the experiment. The blood glucose levels were kept in the range of 4.5–5.5 mmol/L before each insulin bolus was given.
In the first pig, we tested different glucose infusion rates to identify a suitable rate. In the remaining seven pigs, a constant glucose infusion rate of 8 g/hour was used throughout the experiments.
For both trials, arterial blood samples for glucose analysis were collected in heparinized syringes (LEO Pharma). Samples were analyzed on a Radiometer ABL 725 blood gas analyzer (Radiometer Medical, Brønshøj, Denmark). All blood samples were placed on ice immediately after extraction from the pigs. Most samples were analyzed consecutively, but some samples were stored on ice for a maximum of 20 min before analysis.
In the main trial, samples were collected 10, 5 and 1 min prior to the first somatostatin analog injection, every 10 min for the first hour after Sandostatin injection, every minute for the first 10 min after the insulin bolus, and every fifth minute thereafter for the next 110 min.
From the main trial, data from the last seven pigs were used for statistical analysis. We assumed the glucose levels at −5 min to be the baseline glucose levels at the start before each bolus (online supplemental figure S1).
Treatment and time were the sources of variation. […] Statistics were performed with GraphPad Prism V.8 Statistics.

[1] = Description: Between January 2017 and August 2018, eight juvenile, non-diabetic, cross-bred pigs (50% Landswine, 50% Yorkshire) approximately 3 months of age (one male (36.2 kg) and seven females (39.5±2.7 kg)) were brought from the same local farmer approximately 1 week before the trials and acclimatized to the staff and new environment. Whenever possible, the pigs were kept in groups in a common stall (11.2 m^2) with concrete floor covered with woodchips. In every stall, a heating lamp was provided. In the facility, a day-night photoperiod (night: 21:00–05:00, dawn: 05:00–07:00, day: 07:00–19:00, dusk: 19:00–21:00) was maintained at 22°C and a relative humidity of 45%±5%. The pigs were fed standard food (Format Vekst 100, Felleskjøpet, Norway) and fresh water was available ad libitum. Food was removed 17 hours before the start of the trial while water was available until anesthesia was initiated.
In the main trial, the first pig was used to obtain information about optimal infusion rate of glucose to maintain stable glucose levels throughout the trial days. The second pig was used to confirm the chosen infusion rate. The remaining six pigs were used to study the pharmacokinetics and pharmacodynamics of intraperitoneally delivered insulin boluses. However, all pigs received boluses of 2, 5 and 10 U of insulin (1 U/s) in the upper right quadrant of the intraperitoneal cavity. The order of insulin boluses for the first two pigs was 2, 5 and 10 U. The order of boluses for the last six pigs was randomized.[6] There were at least 2 hours and 30 min between each bolus.
At the start of every trial day, a fresh insulin analog (100 U/mL, NovoRapid, Novo Nordisk, Denmark) was inserted in an insulin pump (Animas Vibe).
(§2) In the main trial, all pigs (n=7) received three insulin boluses (2, 5 and 10 U) in the upper right intraperitoneal space. In the additional trial, insulin boluses were injected into the subcutaneous tissues in the left side of the neck. Two pigs received 10 U boluses and one pig received a 5 U bolus.
(§3) In both trials, blood samples for insulin analysis were stored on ice for at least 10 min before centrifugation (10 min at 2.000× rpm in a refrigerated centrifuge). Plasma was collected from the samples immediately after centrifugation and transferred into empty Eppendorf Tubes and temporarily stored at −20°C. At the end of each trial day, plasma samples were stored at −80°C.
(§4) Plasma insulin was analyzed as singles by Iso-Insulin ELISA kit (10-1128-01, Mercodia, Uppsala, Sweden). Suppression of endogenous insulin secretion was verified by analyses of Porcine Insulin ELISA (10-1200-01, Mercodia) according to the manufacturer’s protocol. The results were converted from mU/L to pmol/L by a conversion factor 6, as recommended by the manufacturer. The lowest detectable insulin concentration for the Iso-Insulin ELISA kit was <3.0 mU/L (18 pmol/L) and for Porcine Insulin ELISA was <2.3 mU/L (13.8 pmol/L).
Delta values collected from the main trial with different insulin boluses (2, 5 and 10 U) in the pigs were analyzed. In order to estimate possible significant differences in circulating insulin and blood glucose levels after IP insulin boluses, a two-way repeated measures analysis of variance was performed. Treatment and time were the sources of variation. Tukey’s multiple comparisons test was used for distinguishing comparisons between different insulin boluses. All non-measurable insulin values were set at 18 pmol/L. All treatments are compared as models; therefore, comparison between unequal groups is allowed. Statistics were performed with GraphPad Prism V.8 Statistics. All values are given as mean±SD, unless stated otherwise. Differences between the groups were considered significant if p≤0.05.

[2] = remark: listed apart in the source
Description: We also performed an additional trial to investigate subcutaneous insulin dynamics and effect on blood glucose levels, performed under similar conditions. For more details, see online supplemental material section 'Additional trial'. In short, between May 2019 and January 2020, three juvenile, non-diabetic, cross-bred male pigs (50% Landswine, 50% Yorkshire) approximately 3 months of age weighing 39.5±4.3 kg were brought from the same local farmer and kept in the conditions as in the main trial.
In the additional trial, two pigs received 10 U subcutaneous insulin boluses and one pig received a 5 U subcutaneous insulin bolus. All subcutaneous insulin boluses were performed as the first bolus of the day.
Additionally, all pigs received an intraperitoneal glucagon bolus (150 µg) 40 min after the insulin bolus.
as §2, §3, §4

[3] = in vitro model; cited from earlier work
Description: The liver is the major organ involved in glucose homeostasis.

[4] = system: endogenous insulin secretion; assay: Suppression of endogenous insulin secretion by somatostatin analogs (Porcine Insulin ELISA); assay type: in vivo, pig; settings: octreotide 0.4 mg IV hourly together with pasireotide 0.3 mg SC every 3 hours, pigs, no detectable levels
Protocol: To suppress the endogenous insulin and glucagon secretion, all pigs received the somatostatin analogs octreotide (Sandostatin 200 µg/mL, Novartis Europharm, UK) and pasireotide (Signifor 0.3 mg/mL, Novartis Europharm).
as §1

[5] = 5 U subcutaneous bolus, n=1 pig
[6] = 10 U subcutaneous boluses, n=2 pigs

Substance | decrease of estimated mean blood glucose level after 5 U compared with 2 U intraperitoneal insulin boluses (pigs; 5 U vs 2 U IP bolus, anesthetized non-diabetic pigs, n=7, 120 min after bolus, glucose infusion 8 g/hour, 95% CI 0.31 to 0.65, p<0.0001) [mmol/L] | decrease of estimated mean blood glucose level after 10 U compared with 2 U intraperitoneal insulin boluses (pigs; 10 U vs 2 U IP bolus, anesthetized non-diabetic pigs, n=7, 120 min after bolus, glucose infusion 8 g/hour, 95% CI 0.44 to 0.79, p<0.0001) [mmol/L] | change of mean blood glucose level after 10 U compared with 5 U intraperitoneal insulin boluses (pigs; 10 U vs 5 U IP bolus, n=7 pigs, 95% CI −0.04 to 0.30, p=0.184, not different) [mmol/L] | effect on mean circulating insulin level ([1]; 2 U IP bolus, n=7 pigs) | effect on mean circulating insulin level ([1]; 5 U IP bolus, n=7 pigs) | mean circulating insulin levels after 5 U compared with 2 U intraperitoneal insulin boluses ([1]; 5 U vs 2 U IP bolus, n=7 pigs, p=0.89) | time after which mean circulating insulin level was close to baseline ([1]; 10 U IP bolus, n=7 pigs) [min] | time after which mean insulin level started to increase ([1]; 10 U IP bolus, n=7 pigs) [min] | increase of mean circulating insulin level after 10 U compared with 2 U intraperitoneal insulin boluses ([1]; 10 U vs 2 U IP bolus, n=7 pigs, plasma, Iso-Insulin ELISA, mean±SE, 95% CI 1.99 to 5.37, p<0.0001) [pmol/L] | increase of mean circulating insulin level after 10 U compared with 5 U intraperitoneal insulin boluses ([1]; 10 U vs 5 U IP bolus, n=7 pigs, plasma, Iso-Insulin ELISA, mean±SE, 95% CI 5.86 to 10.89, p<0.0001) [pmol/L] | first-pass effect in the liver ([1]; after the smaller (2 and 5 U) IP insulin boluses, inferred from circulating insulin levels in pigs) [%] | time after bolus at which insulin level was increased [2, 5] [min] | time at which insulin levels were still elevated [2, 5] [min] | time after boluses at which mean insulin level was increased [2, 6] [min] | time at which insulin levels were still elevated [2, 6] [min] | mean circulating insulin level after subcutaneous compared with intraperitoneal insulin boluses ([2]; subcutaneous (5 U n=1, 10 U n=2) vs IP boluses (n=7), p value not calculated) | hepatic first-pass effect [3] | endogenous insulin levels during the experiments [4] [pmol/L]
insulin: fresh insulin analog (100 U/mL, NovoRapid, Novo Nordisk, Denmark) delivered by insulin pump | 0.48 ± 0.07 | 0.61 ± 0.07 | 0.13 ± 0.07 | did not increase | did not increase | not different | 80 | 10 | 7.89 ± 1.07 | 8.37 ± 1.07 | ~100 | 5 | 140 | 5 | 140 | increased more | up to 80% | 
octreotide |  |  |  |  |  |  |  |  |  |  |  |  |  |  |  |  |  | < 13.8
pasireotide |  |  |  |  |  |  |  |  |  |  |  |  |  |  |  |  |  | < 13.8
